# Source: patent publication US20180155451A1 (published 2018)
# T1: FcγRIIa H (human, UniProt P12318 34-217)
# T1 construct: extracellular domain; also called FcgRIIa H type; 2aH; not shown: His tag at the C terminus
# T1 sequence (looked up): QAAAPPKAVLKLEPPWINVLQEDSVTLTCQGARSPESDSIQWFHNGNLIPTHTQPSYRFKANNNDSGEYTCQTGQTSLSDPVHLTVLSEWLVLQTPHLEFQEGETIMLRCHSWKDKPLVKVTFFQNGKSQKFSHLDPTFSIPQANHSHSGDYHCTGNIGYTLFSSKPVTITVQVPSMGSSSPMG
# Target: T1, FcγRIIa H
# Assay: SPR Biacore, relative binding
row,Binder,Ho/Con_2aH
1,"GpH7-B3 variant K334_04F/GpL16-k0 (antibody, human IgG1, kappa, also called Ho Ab K334_04F) heavy: not shown light: DIVMTQSPLSLPVTPGEPASISCQASESLVHSNRNTYLHWYLQKPGQSPQLLIYKVSNRFSGVPDRFSGSGSGTDFTLKISRVEAEDVGVYYCSQNTHVPPTFGQGTKVEIERTVAAPSVFIFPPSDEQLKSGTASVVCLLNNFYPREAKVQWKVDNALQSGNSQESVTEQDSKDSTYSLSSTLTLSKADYEKHKVYACEVTHQGLSSPVTKSFNRGEC",103 % of GpH7-B3/GpL16-k0 (=100)
2,"GpH7-B3 variant K326_19Q/GpL16-k0 (antibody, human IgG1, kappa, also called Ho Ab K326_19Q) heavy: not shown light: DIVMTQSPLSLPVTPGEPASISCQASESLVHSNRNTYLHWYLQKPGQSPQLLIYKVSNRFSGVPDRFSGSGSGTDFTLKISRVEAEDVGVYYCSQNTHVPPTFGQGTKVEIERTVAAPSVFIFPPSDEQLKSGTASVVCLLNNFYPREAKVQWKVDNALQSGNSQESVTEQDSKDSTYSLSSTLTLSKADYEKHKVYACEVTHQGLSSPVTKSFNRGEC",100 % of GpH7-B3/GpL16-k0 (=100)
3,"GpH7-B3 variant K326_14T/GpL16-k0 (antibody, human IgG1, kappa, also called Ho Ab K326_14T) heavy: not shown light: DIVMTQSPLSLPVTPGEPASISCQASESLVHSNRNTYLHWYLQKPGQSPQLLIYKVSNRFSGVPDRFSGSGSGTDFTLKISRVEAEDVGVYYCSQNTHVPPTFGQGTKVEIERTVAAPSVFIFPPSDEQLKSGTASVVCLLNNFYPREAKVQWKVDNALQSGNSQESVTEQDSKDSTYSLSSTLTLSKADYEKHKVYACEVTHQGLSSPVTKSFNRGEC",118 % of GpH7-B3/GpL16-k0 (=100)
4,"GpH7-B3 variant L235_20W/GpL16-k0 (antibody, human IgG1, kappa, also called Ho Ab L235_20W) heavy: not shown light: DIVMTQSPLSLPVTPGEPASISCQASESLVHSNRNTYLHWYLQKPGQSPQLLIYKVSNRFSGVPDRFSGSGSGTDFTLKISRVEAEDVGVYYCSQNTHVPPTFGQGTKVEIERTVAAPSVFIFPPSDEQLKSGTASVVCLLNNFYPREAKVQWKVDNALQSGNSQESVTEQDSKDSTYSLSSTLTLSKADYEKHKVYACEVTHQGLSSPVTKSFNRGEC",112 % of GpH7-B3/GpL16-k0 (=100)
5,"GpH7-B3 variant I336_08L/GpL16-k0 (antibody, human IgG1, kappa, also called Ho Ab I336_08L) heavy: not shown light: DIVMTQSPLSLPVTPGEPASISCQASESLVHSNRNTYLHWYLQKPGQSPQLLIYKVSNRFSGVPDRFSGSGSGTDFTLKISRVEAEDVGVYYCSQNTHVPPTFGQGTKVEIERTVAAPSVFIFPPSDEQLKSGTASVVCLLNNFYPREAKVQWKVDNALQSGNSQESVTEQDSKDSTYSLSSTLTLSKADYEKHKVYACEVTHQGLSSPVTKSFNRGEC",101 % of GpH7-B3/GpL16-k0 (=100)
6,"GpH7-B3 variant K326_09D/GpL16-k0 (antibody, human IgG1, kappa, also called Ho Ab K326_09D) heavy: not shown light: DIVMTQSPLSLPVTPGEPASISCQASESLVHSNRNTYLHWYLQKPGQSPQLLIYKVSNRFSGVPDRFSGSGSGTDFTLKISRVEAEDVGVYYCSQNTHVPPTFGQGTKVEIERTVAAPSVFIFPPSDEQLKSGTASVVCLLNNFYPREAKVQWKVDNALQSGNSQESVTEQDSKDSTYSLSSTLTLSKADYEKHKVYACEVTHQGLSSPVTKSFNRGEC",113 % of GpH7-B3/GpL16-k0 (=100)
7,"GpH7-B3 variant I336_06M/GpL16-k0 (antibody, human IgG1, kappa, also called Ho Ab I336_06M) heavy: not shown light: DIVMTQSPLSLPVTPGEPASISCQASESLVHSNRNTYLHWYLQKPGQSPQLLIYKVSNRFSGVPDRFSGSGSGTDFTLKISRVEAEDVGVYYCSQNTHVPPTFGQGTKVEIERTVAAPSVFIFPPSDEQLKSGTASVVCLLNNFYPREAKVQWKVDNALQSGNSQESVTEQDSKDSTYSLSSTLTLSKADYEKHKVYACEVTHQGLSSPVTKSFNRGEC",100 % of GpH7-B3/GpL16-k0 (=100)
8,"GpH7-B3 variant L328_06M/GpL16-k0 (antibody, human IgG1, kappa, also called Ho Ab L328_06M) heavy: not shown light: DIVMTQSPLSLPVTPGEPASISCQASESLVHSNRNTYLHWYLQKPGQSPQLLIYKVSNRFSGVPDRFSGSGSGTDFTLKISRVEAEDVGVYYCSQNTHVPPTFGQGTKVEIERTVAAPSVFIFPPSDEQLKSGTASVVCLLNNFYPREAKVQWKVDNALQSGNSQESVTEQDSKDSTYSLSSTLTLSKADYEKHKVYACEVTHQGLSSPVTKSFNRGEC",100 % of GpH7-B3/GpL16-k0 (=100)
9,"GpH7-B3 variant K334_16H/GpL16-k0 (antibody, human IgG1, kappa, also called Ho Ab K334_16H) heavy: not shown light: DIVMTQSPLSLPVTPGEPASISCQASESLVHSNRNTYLHWYLQKPGQSPQLLIYKVSNRFSGVPDRFSGSGSGTDFTLKISRVEAEDVGVYYCSQNTHVPPTFGQGTKVEIERTVAAPSVFIFPPSDEQLKSGTASVVCLLNNFYPREAKVQWKVDNALQSGNSQESVTEQDSKDSTYSLSSTLTLSKADYEKHKVYACEVTHQGLSSPVTKSFNRGEC",101 % of GpH7-B3/GpL16-k0 (=100)
10,"GpH7-B3 variant L328_02A/GpL16-k0 (antibody, human IgG1, kappa, also called Ho Ab L328_02A) heavy: not shown light: DIVMTQSPLSLPVTPGEPASISCQASESLVHSNRNTYLHWYLQKPGQSPQLLIYKVSNRFSGVPDRFSGSGSGTDFTLKISRVEAEDVGVYYCSQNTHVPPTFGQGTKVEIERTVAAPSVFIFPPSDEQLKSGTASVVCLLNNFYPREAKVQWKVDNALQSGNSQESVTEQDSKDSTYSLSSTLTLSKADYEKHKVYACEVTHQGLSSPVTKSFNRGEC",134 % of GpH7-B3/GpL16-k0 (=100)
11,"GpH7-B3 variant K334_14T/GpL16-k0 (antibody, human IgG1, kappa, also called Ho Ab K334_14T) heavy: not shown light: DIVMTQSPLSLPVTPGEPASISCQASESLVHSNRNTYLHWYLQKPGQSPQLLIYKVSNRFSGVPDRFSGSGSGTDFTLKISRVEAEDVGVYYCSQNTHVPPTFGQGTKVEIERTVAAPSVFIFPPSDEQLKSGTASVVCLLNNFYPREAKVQWKVDNALQSGNSQESVTEQDSKDSTYSLSSTLTLSKADYEKHKVYACEVTHQGLSSPVTKSFNRGEC",105 % of GpH7-B3/GpL16-k0 (=100)
